Data on one molecule can be found in patent US20220089656A1 (published 2022).

This experiment deals with T1, human ASIP (agouti-signaling protein, RnD Systems) (human, UniProt P42127 23-132).
T1 construct: Coated at 2 ug/ml; also called ASIP protein
T1 sequence (looked up): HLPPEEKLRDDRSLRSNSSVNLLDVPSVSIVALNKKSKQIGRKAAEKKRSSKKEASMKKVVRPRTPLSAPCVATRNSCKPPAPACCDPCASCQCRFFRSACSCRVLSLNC
As to the kind of experiment: ELISA: Protein M-HRP on coated human ASIP without antibody.

B1: Protein M horseradish peroxidase (HRP) fusion protein (other)
chain: EQKLISEEDLAANQLTPTFYDNSCPNVSNIVRDTIVNELRSDPRIAASILRLHFHDCFVNGCDASILLDNTTSFRTEKDAFGNANSARGFPVIDRMKAAVESACPRTVSCADLLTIAAQQSVTLAGGPSWRVPLGRRDSLQAFLDLANANLPAPFFTLPQLKDSFRNVGLNRSSDLVALSGGHTFGKNQCRFIMDRLYNFSNTGLPDPTLNTTYLQTLRGLCPLNGNLSALVDFDLRTPTIFDNKYYVNLEEQKGLIQSDQELFSSPNATDTIPLVRSFANSTQTFFNAFVEAMDRMGNITPLTGTQGQIRLNCRVVNSNSGGGGSGGGGSGGGGSTNLVNQSGYALVASGRSGNLGFKLFSTQSPSAEVKLKSLSLNDGSYQSEIDLSGGANFREKFRNFANELSEAITNSPKGLDRPVPKTEISGLIKTGDNFITPSFKAGYYDHVASDGSLLSYYQSTEYFNNRVLMPILQTTNGTLMANNRGYDDVFRQVPSFSGWSNTKATTVSTSNNLTYDKWTYFAAKGSPLYDSYPNHFFEDVKTLAIDAKDISALKTTIDSEKPTYLIIRGLSGNGSQLNELQLPESVKKVSLYGDYTGVNVAKQIFANVVELEFYSTSKANSFGFNPLVLGSKTNVIYDLFASKPFTHIDLTQVTLQNSDNSAIDANKLKQAVGDIYNYRRFERQFQGYFAGGYIDKYLVKNVNTNKDSDDDLVYRSLKELNLHLEEAYREGDNTYYRVNENYYPGASIYENERASRDSEFQNEILKRAEQNGVTFDENIKRITASGKYSVQFQKLENDTDSSLERMTKAVEGLVTVIGEEKFETVDITGVSSDTNEVKSLAKELKTNALGVKLKL
notes: also called Protein M-HRP
B1: the binding result is “no binding”.
